Experimental data taken from the supplement of paper PMC10567573.

B1: DFFB (parent)
chain: KLNCDPSRIYKPQTRLKRKQPVRK

Variants of: B1
Assay: protein stability index of a GFP-peptide fusion (GPS, HEK-293T) (PSI 1-6); higher = more stable
Conditions: c terminus: a fixed tail appended
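Further: lentivirally expressed fusions sorted by FACS into six bins by GFP to DsRed ratio, PSI derived from sequencing read proportions per bin multiplied by bin number.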

Q: Which protein stability index does the source give for KLNCHPSRIYKPQTRLKRKQPVRK [D5H] here?
A: The protein stability index was 3.48.

Q: For KLNCYPSRIYKPQTRLKRKQPVRK [D5Y], which protein stability index is on record?
A: Its protein stability index is 3.75.

Q: Which protein stability index does the source give for KLNCKPSRIYKPQTRLKRKQPVRK [D5K] here?
A: The protein stability index was 3.8.

Q: With KLNCAPSRIYKPQTRLKRKQPVRK [D5A] as the variant, how does the protein stability index read?
A: The protein stability index was 3.46.

Q: For KLNCIPSRIYKPQTRLKRKQPVRK [D5I], which protein stability index is on record?
A: The protein stability index was 2.74.

Q: For KLNCTPSRIYKPQTRLKRKQPVRK [D5T], which protein stability index is on record?
A: The protein stability index was 2.92.

Q: With KLNCLPSRIYKPQTRLKRKQPVRK [D5L] as the variant, how does the protein stability index read?
A: Its protein stability index is 3.06.

Q: Which protein stability index does the source give for KLNCQPSRIYKPQTRLKRKQPVRK [D5Q] here?
A: The protein stability index was 3.32.

Q: With KLNCFPSRIYKPQTRLKRKQPVRK [D5F] as the variant, how does the protein stability index read?
A: Its protein stability index is 3.08.

Q: Which protein stability index does the source give for KLNCCPSRIYKPQTRLKRKQPVRK [D5C] here?
A: Its protein stability index is 4.16.

Q: Which protein stability index does the source give for KLNCRPSRIYKPQTRLKRKQPVRK [D5R] here?
A: Its protein stability index is 3.34.

Q: For KLNCMPSRIYKPQTRLKRKQPVRK [D5M], which protein stability index is on record?
A: The protein stability index was 2.71.

Q: With KLNCVPSRIYKPQTRLKRKQPVRK [D5V] as the variant, how does the protein stability index read?
A: The protein stability index was 2.98.

Q: For KLNCEPSRIYKPQTRLKRKQPVRK [D5E], which protein stability index is on record?
A: Its protein stability index is 2.9.

Q: With KLNCWPSRIYKPQTRLKRKQPVRK [D5W] as the variant, how does the protein stability index read?
A: Its protein stability index is 2.71.

Q: For KLNCSPSRIYKPQTRLKRKQPVRK [D5S], which protein stability index is on record?
A: Its protein stability index is 3.35.

Q: Which protein stability index does the source give for KLNCNPSRIYKPQTRLKRKQPVRK [D5N] here?
A: The protein stability index was 3.96.

Q: For KLNCPPSRIYKPQTRLKRKQPVRK [D5P], which protein stability index is on record?
A: The protein stability index was 3.25.

Q: With KLNCGPSRIYKPQTRLKRKQPVRK [D5G] as the variant, how does the protein stability index read?
A: The protein stability index was 3.35.

Q: Which protein stability index does the source give for KLHCDPSRIYKPQTRLKRKQPVRK [N3H] here?
A: Its protein stability index is 3.75.

Q: With KLLCDPSRIYKPQTRLKRKQPVRK [N3L] as the variant, how does the protein stability index read?
A: Its protein stability index is 3.06.

Q: Which protein stability index does the source give for KLWCDPSRIYKPQTRLKRKQPVRK [N3W] here?
A: Its protein stability index is 3.21.

Q: With KLDCDPSRIYKPQTRLKRKQPVRK [N3D] as the variant, how does the protein stability index read?
A: Its protein stability index is 4.07.

Q: For KLSCDPSRIYKPQTRLKRKQPVRK [N3S], which protein stability index is on record?
A: The protein stability index was 4.17.

Q: Which protein stability index does the source give for KLKCDPSRIYKPQTRLKRKQPVRK [N3K] here?
A: The protein stability index was 4.07.

Q: Which protein stability index does the source give for KLRCDPSRIYKPQTRLKRKQPVRK [N3R] here?
A: Its protein stability index is 4.24.

Q: With KLPCDPSRIYKPQTRLKRKQPVRK [N3P] as the variant, how does the protein stability index read?
A: The protein stability index was 3.97.

Q: Which protein stability index does the source give for KLACDPSRIYKPQTRLKRKQPVRK [N3A] here?
A: Its protein stability index is 4.21.

Q: With KLFCDPSRIYKPQTRLKRKQPVRK [N3F] as the variant, how does the protein stability index read?
A: The protein stability index was 3.03.

Q: With KLYCDPSRIYKPQTRLKRKQPVRK [N3Y] as the variant, how does the protein stability index read?
A: The protein stability index was 3.29.

Q: Which protein stability index does the source give for KLCCDPSRIYKPQTRLKRKQPVRK [N3C] here?
A: Its protein stability index is 3.73.

Q: For KLGCDPSRIYKPQTRLKRKQPVRK [N3G], which protein stability index is on record?
A: The protein stability index was 4.4.

Q: For KLTCDPSRIYKPQTRLKRKQPVRK [N3T], which protein stability index is on record?
A: The protein stability index was 3.96.

Q: For KLQCDPSRIYKPQTRLKRKQPVRK [N3Q], which protein stability index is on record?
A: Its protein stability index is 3.53.

Q: With KLVCDPSRIYKPQTRLKRKQPVRK [N3V] as the variant, how does the protein stability index read?
A: Its protein stability index is 3.96.

Q: With KLECDPSRIYKPQTRLKRKQPVRK [N3E] as the variant, how does the protein stability index read?
A: Its protein stability index is 4.44.

Q: Which protein stability index does the source give for KLMCDPSRIYKPQTRLKRKQPVRK [N3M] here?
A: Its protein stability index is 3.19.

Q: Which protein stability index does the source give for KLICDPSRIYKPQTRLKRKQPVRK [N3I] here?
A: Its protein stability index is 2.89.

Q: Which protein stability index does the source give for SLNCDPSRIYKPQTRLKRKQPVRK [K1S] here?
A: Its protein stability index is 2.92.

Q: For TLNCDPSRIYKPQTRLKRKQPVRK [K1T], which protein stability index is on record?
A: The protein stability index was 3.87.

Q: For ALNCDPSRIYKPQTRLKRKQPVRK [K1A], which protein stability index is on record?
A: Its protein stability index is 4.14.

Q: Which protein stability index does the source give for PLNCDPSRIYKPQTRLKRKQPVRK [K1P] here?
A: Its protein stability index is 3.54.

Q: For LLNCDPSRIYKPQTRLKRKQPVRK [K1L], which protein stability index is on record?
A: The protein stability index was 3.8.

Q: With VLNCDPSRIYKPQTRLKRKQPVRK [K1V] as the variant, how does the protein stability index read?
A: The protein stability index was 3.57.

Q: With HLNCDPSRIYKPQTRLKRKQPVRK [K1H] as the variant, how does the protein stability index read?
A: Its protein stability index is 1.93.

Q: With MLNCDPSRIYKPQTRLKRKQPVRK [K1M] as the variant, how does the protein stability index read?
A: Its protein stability index is 2.65.

Q: Which protein stability index does the source give for WLNCDPSRIYKPQTRLKRKQPVRK [K1W] here?
A: The protein stability index was 3.65.

Q: With CLNCDPSRIYKPQTRLKRKQPVRK [K1C] as the variant, how does the protein stability index read?
A: Its protein stability index is 3.2.

Q: Which protein stability index does the source give for RLNCDPSRIYKPQTRLKRKQPVRK [K1R] here?
A: The protein stability index was 4.11.

Q: Which protein stability index does the source give for ILNCDPSRIYKPQTRLKRKQPVRK [K1I] here?
A: Its protein stability index is 2.06.

Q: For QLNCDPSRIYKPQTRLKRKQPVRK [K1Q], which protein stability index is on record?
A: The protein stability index was 3.37.

Q: For FLNCDPSRIYKPQTRLKRKQPVRK [K1F], which protein stability index is on record?
A: Its protein stability index is 2.63.

Q: With GLNCDPSRIYKPQTRLKRKQPVRK [K1G] as the variant, how does the protein stability index read?
A: Its protein stability index is 3.13.

Q: For DLNCDPSRIYKPQTRLKRKQPVRK [K1D], which protein stability index is on record?
A: The protein stability index was 4.23.

Q: With YLNCDPSRIYKPQTRLKRKQPVRK [K1Y] as the variant, how does the protein stability index read?
A: Its protein stability index is 3.24.

Q: Which protein stability index does the source give for NLNCDPSRIYKPQTRLKRKQPVRK [K1N] here?
A: Its protein stability index is 3.47.

Q: For ELNCDPSRIYKPQTRLKRKQPVRK [K1E], which protein stability index is on record?
A: The protein stability index was 3.42.

Q: For KLNSDPSRIYKPQTRLKRKQPVRK [C4S], which protein stability index is on record?
A: The protein stability index was 3.66.

Q: Which protein stability index does the source give for KLNHDPSRIYKPQTRLKRKQPVRK [C4H] here?
A: Its protein stability index is 3.5.

Q: For KLNMDPSRIYKPQTRLKRKQPVRK [C4M], which protein stability index is on record?
A: The protein stability index was 2.35.

Q: With KLNVDPSRIYKPQTRLKRKQPVRK [C4V] as the variant, how does the protein stability index read?
A: The protein stability index was 4.06.

Q: With KLNLDPSRIYKPQTRLKRKQPVRK [C4L] as the variant, how does the protein stability index read?
A: Its protein stability index is 3.24.

Q: For KLNEDPSRIYKPQTRLKRKQPVRK [C4E], which protein stability index is on record?
A: Its protein stability index is 3.65.

Q: For KLNGDPSRIYKPQTRLKRKQPVRK [C4G], which protein stability index is on record?
A: The protein stability index was 2.77.

Q: Which protein stability index does the source give for KLNQDPSRIYKPQTRLKRKQPVRK [C4Q] here?
A: The protein stability index was 3.78.

Q: With KLNADPSRIYKPQTRLKRKQPVRK [C4A] as the variant, how does the protein stability index read?
A: The protein stability index was 3.75.

Q: Which protein stability index does the source give for KLNFDPSRIYKPQTRLKRKQPVRK [C4F] here?
A: Its protein stability index is 3.5.

Q: With KLNWDPSRIYKPQTRLKRKQPVRK [C4W] as the variant, how does the protein stability index read?
A: The protein stability index was 3.56.

Q: Which protein stability index does the source give for KLNPDPSRIYKPQTRLKRKQPVRK [C4P] here?
A: The protein stability index was 4.03.

Q: For KLNYDPSRIYKPQTRLKRKQPVRK [C4Y], which protein stability index is on record?
A: Its protein stability index is 3.51.

Q: Which protein stability index does the source give for KLNRDPSRIYKPQTRLKRKQPVRK [C4R] here?
A: Its protein stability index is 4.12.

Q: Which protein stability index does the source give for KLNIDPSRIYKPQTRLKRKQPVRK [C4I] here?
A: The protein stability index was 2.73.

Q: For KLNDDPSRIYKPQTRLKRKQPVRK [C4D], which protein stability index is on record?
A: The protein stability index was 3.88.

Q: With KLNTDPSRIYKPQTRLKRKQPVRK [C4T] as the variant, how does the protein stability index read?
A: The protein stability index was 3.62.

Q: Which protein stability index does the source give for KLNKDPSRIYKPQTRLKRKQPVRK [C4K] here?
A: Its protein stability index is 3.58.

Q: For KLNNDPSRIYKPQTRLKRKQPVRK [C4N], which protein stability index is on record?
A: Its protein stability index is 3.74.

Q: For KLNCDPERIYKPQTRLKRKQPVRK [S7E], which protein stability index is on record?
A: The protein stability index was 3.53.

Q: Which protein stability index does the source give for KLNCDPCRIYKPQTRLKRKQPVRK [S7C] here?
A: Its protein stability index is 3.52.

Q: Which protein stability index does the source give for KLNCDPFRIYKPQTRLKRKQPVRK [S7F] here?
A: The protein stability index was 3.34.

Q: For KLNCDPGRIYKPQTRLKRKQPVRK [S7G], which protein stability index is on record?
A: The protein stability index was 3.5.

Q: Which protein stability index does the source give for KLNCDPARIYKPQTRLKRKQPVRK [S7A] here?
A: Its protein stability index is 3.28.

Q: Which protein stability index does the source give for KLNCDPHRIYKPQTRLKRKQPVRK [S7H] here?
A: The protein stability index was 3.21.

Q: Which protein stability index does the source give for KLNCDPDRIYKPQTRLKRKQPVRK [S7D] here?
A: The protein stability index was 3.36.

Q: With KLNCDESRIYKPQTRLKRKQPVRK [P6E] as the variant, how does the protein stability index read?
A: The protein stability index was 4.13.

Q: With KLNCDVSRIYKPQTRLKRKQPVRK [P6V] as the variant, how does the protein stability index read?
A: Its protein stability index is 2.89.

Q: Which protein stability index does the source give for KLNCDYSRIYKPQTRLKRKQPVRK [P6Y] here?
A: Its protein stability index is 3.5.

Q: For KLNCDDSRIYKPQTRLKRKQPVRK [P6D], which protein stability index is on record?
A: Its protein stability index is 4.05.

Q: For KLNCDKSRIYKPQTRLKRKQPVRK [P6K], which protein stability index is on record?
A: The protein stability index was 4.03.

Q: With KLNCDGSRIYKPQTRLKRKQPVRK [P6G] as the variant, how does the protein stability index read?
A: The protein stability index was 3.44.

Q: Which protein stability index does the source give for KLNCDHSRIYKPQTRLKRKQPVRK [P6H] here?
A: Its protein stability index is 3.39.

Q: With KLNCDMSRIYKPQTRLKRKQPVRK [P6M] as the variant, how does the protein stability index read?
A: Its protein stability index is 3.16.

Q: Which protein stability index does the source give for KLNCDRSRIYKPQTRLKRKQPVRK [P6R] here?
A: Its protein stability index is 3.7.

Q: For KLNCDFSRIYKPQTRLKRKQPVRK [P6F], which protein stability index is on record?
A: Its protein stability index is 2.92.

Q: Which protein stability index does the source give for KLNCDSSRIYKPQTRLKRKQPVRK [P6S] here?
A: The protein stability index was 3.71.
